Experimental data from article PMC7092467, “Transaldolase in Bacillus methanolicus: biochemical characterization and biological role in ribulose monophosphate cycle” (BMC Microbiology, 2020).

Experiments:
[1] = target: Recreated full-length transaldolase of Bacillus methanolicus MGA3 (Ta^MGA3rec), C-terminal hexahistidine-tagged (Bacillus methanolicus MGA3); assay: SEC; gel filtration of 1 mg purified Ta dissolved in 2 ml of 20 mM Tris-HCl, pH 7.8, with Ta activity assays of the eluted fractions; eluted in a single fraction corresponding to 54 kDa
purified protein = substrate: O=C[C@H](O)[C@H](O)COP(=O)(O)O; assay: purified protein; assay type: biochemical, Bacillus methanolicus; settings: co-substrate F6P, 50 mM Tris-HCl pH 7.8, 50 °C, 0.25 mM NADH
[2] = target: the molecule itself; assay: SEC; gel filtration of 1 mg purified Ta dissolved in 2 ml of 20 mM Tris-HCl, pH 7.8, with Ta activity assays of the eluted fractions; eluted in a single fraction corresponding to 54 kDa

For “Recreated full-length transaldolase of Bacillus methanolicus MGA3 (Ta^MGA3rec), C-terminal hexahistidine-tagged (enzyme)”, the stoichiometry N [1] was 2.

B1: Transaldolase of Bacillus methanolicus PB1 (Ta^PB1), C-terminal hexahistidine-tagged (enzyme, UniProt I3E1B6 1-229, looked up)
chain: MIQNSIQRNKGGVIIKFFIDTANIDEIREAHSLGILSGVTTNPSLVAKEKNVKFHDRLREIAGLVPGSVSAEVIALDTEGMIKEGRELASIAPNITVKVPMTPESLKAVHALSKEGIKTNVTLIFSANQALLAARAGATYVSPFLGRLDDIGHNGLELISTIADIFAIHQIKTEIIAASIRHPQHVTEAALKGAHIATLPYKVILQLFKHPLTDKGIEAFLADWKKRGQ
notes: Transaldolase (Ta) of Bacillus methanolicus PB1, UniProt I3E1B6; also called PB1 Ta protein; PB1 Ta gene product; source: E. coli BL21 (DE3), pET28b-ta^PB1, purified (Ni-NTA chromatography)
Molecule B1 has a Km (purified protein) of 2500 µM, a Vmax (purified protein) of 8.9 U/mg and a kcat (purified protein) of 4 s⁻¹. The kcat/Km (purified protein) was 1.6 s^− 1 mM^− 1 and the “stoichiometry N” value [2] was 2.
